Literature values in article PMC7390727.
Like-named read-outs stand apart in the source and are kept apart here.

How the values were obtained:
[1] = target: chemoreceptor C-terminal pentapeptide (Salmonella typhimurium)
[2] = target: chemoreceptor C-terminal pentapeptide (Salmonella typhimurium); remark: listed apart in the source

| Substance | Kd [1] [µM] | Kd [2] [nM] |
| --- | --- | --- |
| CheB (from UniProt P04042) | 160 | – |
| CheR (from UniProt P07801) | – | 2000 |
